What follows are sequences tested on Saccharomyces cerevisiae (assay: transcriptional activation domain activity (GFP:mCherry ratio, weighted mean of sorted bins, harmonized to initial dataset scale) (arbitrary fluorescence ratio units); higher = stronger transcriptional activation). Details: beta-estradiol 1 µM; induction time 4 h.
In short: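 Protein tiles carrying barcodes and fused to an estradiol-inducible synthetic transcription factor were placed at the URA3 locus of yeast diploids with a GFP reporter. Following 4 hours at 30 °C in SC with 1 uM beta-estradiol, cells were sorted into 8 GFP:mCherry bins, barcodes were sequenced, and tiles with fewer than 50 reads were discarded. Activation activity is given as the read-weighted mean of bin median fluorescence, averaged across barcodes and linearly mapped to the initial dataset scale.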

Row | Sequence | transcriptional activation domain activity
1 | MYYCLFFFFVSFCISLCFFYYYSQLCFFSTSFFAVSRGFFFISLSFLVCVWTI | 57300
2 | EGSEEKKERSRRHGDSDRRERRRHRSGSRSRDHDRDRERRHRRHRRSRSRDKE | 13400
3 | STARICQMYHWTGNVAIWTHCAILMHPHTIVLWHIWRWDSSWSQASYYFIFWI | 37000
4 | PMSDQHKSQLLPITSVRLRLKLIVHWIHGFKTQWWFRVFFFQKYLRSILFDPF | 37700
5 | MLCIPFCVLFCVVMGLINYGAFVDPCFLSFYVLLSTLLQLPSSFLPFFLFLPP | 66900
6 | MFFFLSAFLLPFLFFLVGHSAPSFLYLVFLSFLFYYLLHFYFFLFFTYFCGSC | 59300
7 | EAGNERRESSRRHDDTERRERRRHRSHDRGHDRERRHRRHRRSRSRDRDGGRE | 34300
8 | MIGHDYLLVVVPIPILSLLHVSLLPYFFYFFVLVLVFLYLFLLRFLSFLLLLL | 65700
9 | NANNANTNANANNNAATTNANANGNGKKGKNNNNNANANANANANAAAAAAAG | 18400
10 | GGEEEEGAPKRPAKKARPSVESEAEVKEEEEEEDAVKPKRGRRTAKSASSSRK | 27300
11 | MLYSFSFTTIGYILAFNPPDGRFFYLMLLGLFVQHLIVYVILFVLILLPICVY | 34300
12 | LPQMGVPGEPLTLLVEFADMLIEMWHQCLAQRYYGPIYHLVALIVYTLELNAT | 54200
13 | MIFMLDANPSYGTLFILLPYLLSLIIPVLITSVLLSDIFFFFISYCMLCLSCC | 52200
14 | AAAGAREVKHPAAKKQKKIEGGSETKDEEEKSSSKKRQKSESKSKSKSKSKSK | 28300
15 | TAVSQLERAIARILLIRYEQDIARLFSTRLYSVALVHLPTFVMRCAALAGPGW | 50400
16 | IAPCGSWTPYTCLILGSIISLFIDFDVFAPFSYRGFITSYFGLAWFWFMFLFW | 56200
17 | EDEASQPAKPRARPAPSRAQNRSKEKSSKTARKRKDKSPPASQQEPEQDEGSE | 18600
18 | EHSTTGDSWFLGLVLCYPLRSYGYFMLFFIWLRLFLVLAFQFLLYACNYLFIL | 62200
19 | MITRRTGGNSGNWVPSIRVQEGVLTKGFRPINMRSELVRLHEVVILVVGMEMD | 47100
20 | AVRLLSTKKISMSQANIGQTYFAHYCLSLLRLARYALSTMIKMFGPVYGWWLF | 64300
21 | ANHQVYADWWYAWCLTYYTGTYKDVFIVLKKSLKWVPVLGWGMQSFRFIFLAR | 79000

Row | Sequence | transcriptional activation domain activity
22 | MITYILRLGFDYLPPLALWIAIVLVHYTYVCCFLVVACENTCRWHMVQFNLRH | 73300
23 | FQNISNTILDISLSHGKVPNMDQLTRELFGASDSYQDILDENNVDVSWVDKLV | 103000
24 | EARRSTREREREEGKSSGGGKGRRGRSGKPRGGGRGAGASGANPGPGAAAGAE | 29100
25 | SFSVILFYFIFLISPGQKAAFVFPWSFFFFLFFFFFFFTFFYFRLFSANFVCV | 45000
26 | QCAYVLEHCMDATPGIFNYIQLYYCSPVRPLVFVLLCAWLLFLFGFVGIAASD | 23300
27 | SNRLFVGLPLCRDPEYLKFSVNHTMRVFMSGRMISVLTPVLRPILAPLLCSRK | 49600
28 | MDVGIYVCICFDGLFSFGEFFYVVYTSFINHTIEFLCLFGFHFLFWVLIFFWV | 50900
29 | KVKKKRRRSDSSDEDAIAALKAKRKKKKRADSDSDEEETSRKKSKSKRRRKAD | 42800
30 | FISVYVPNFFVAFCLEMSQFFYLYQFMVMWLYYYWNYYVIGVIDTAIILVSAI | 47100
31 | MHFLNFLFYCVYYLPLNHTIFFYFVWLTLTLLFFFFLVVYIHISSISSFFYIC | 56600
32 | MLLLKCSLSWIIRKGIYRAKSVMYLWVVANECCSLSMAEWLFLHQSVCSICQC | 58100
33 | LLVRIIGRCGFLGASFQVALLSDYISIMTLHIYWFYAVAARIYFWQLSILHSL | 43100
34 | MDCLLNPVVPCLVCFLPFVCKIAVSLHLPLWSICCVCVSIRIALVCTLIAFII | 50400
35 | GRKKRAVKKKAEGAGAGAGGGGGGAEAEGKVETKGKKAAKPKSRTKAGAKAKG | < 6570
36 | ILFIGGLFLIIAPQMTFHVPAYRIRLCEAACFLCRNFLVFLKRKSVAVIVEMF | 59000
37 | PLYAYTIWSWLCQGVYFTLLTLLSFDQFQSLGEICFIFFELSFGNAMMVTLVS | 80300
38 | EPQPPPKAEPPPEPEPEPVPKAEAPPPPREEPPPPKKAPPPPKPEPTPAPAPT | 38600
39 | IPENELLDEDTMNFISSLKNDLSNISNSLPFEYPHEIAEAIRSDFSNEDIYDN | 98200
40 | GKEVVDIQEAEVEEGGVKREKVRVVFKDGTDAVGDLVVGCDGARSRARECIVG | 45700
41 | KAGCGYILGHINIFQPINWIFVVSAKVFPVDYVLFLLLVFFLFSASVVGVATV | 32300
42 | NKHVFLILIRSTLCNNWLIATIWVVEIRFCLDLLQTAFPLIFFRFLTWLFFFQ | 79900

Row | Sequence | transcriptional activation domain activity
43 | MMLLLMLMILMMILTMMMLLLLHKQENEGCVLFLFLLWWLWLWFWLWCCWKSS | 35300
44 | CYVLRDVFFCTVFFAFAGSIEALLQSGFCGYFPLTSTWQIVLLRALMWMTYWW | 51000
45 | MGIGIHTFFYFWLLIFLFLFLFLFFSWFFFFVIVIIFFNYFIFLRAWMWIAGL | 41600
46 | KQYCVRPNSGRIEAGKEVEVQVLLQAMKEDPPPDARCRDKFLVQSVAVTADQE | 37200
47 | RPFLLNCKDINQFTNLIWERIRITNGTKMYWVWQHLRCVVMFFTLQPNQRILL | 83700
48 | ESSSDEEEMTVAQKMAAQRKAEAAARRAKAHEEALAARSKDDLRSPICCILGH | 53200
49 | MSTLHWNMIFLVFFFWVVDVLFAWIMEVGMMVGVHVAYAYGDCGGPVLFMVPF | 71700
50 | MSLKEKLSIIHMKIRHRIEMTILLLHIFSIPLCLSFFMLCCSFPFFWPFVILY | 77600
51 | QAEDSNDNDNNNKAAAEEEEEEGGGERSGPMVNGNGGGGAEGMVNGASAVGRD | 14800
52 | HVAMRAAVKANNSVMHRLLRNWGENRRRHFHGLLLVRLFRTTLVFSCADEVAA | 53300
53 | LYFLRPEVLPDRYAFTIPAISFLGTNDYPVLVPDLFLLLTSSFWSPTLLWFFT | 55600
54 | RDRGGERDSKPRKTSGSSSNSQHADRGDTRSQKSSRRRRSSRSEHGGETSQHH | < 6570
55 | WLAHSKKKDCDVCKHPYSFNKVYSPDMPARLPPVLLLRHLAKQLFFTVLFSIR | 76900
56 | GFTTLSMMHATVFHGDLISFKHFLELYRHSPLLILYICGYKNTEYYAARYFYS | 34700
57 | SRSRSRRRKSSRRRRRDRSEDAESDDHRARRRHKSRKHSSRAGDDEDGKGRSR | 26100
58 | PAPAPAPAPRKGRSKKPVASPSASPVLAPAPAPAIALRKGRSKKPVASPSASP | 36100
59 | LYILLVFPILLLMMLHSLVTFLYVRAIDPLYGSVPINLHLDKIVWVATFAGAF | 63200
60 | SKKRKIKGGKSRSSSSKSDSSSSSSSSEDGEEKDLSKGVGKRGAKRAKSDDSS | 19000
61 | GMCVCTYRLHRCSHVKSRGRRFLCLHVLLCDVMMGPLTEWWCPLLRMMVKVYL | 47800
62 | EDEASASTDNDEATTKTEKQPKKKAKAEKVADCEAVVKKKAPAKRQSKKEANQ | 41600
63 | HTFVRICKLAGDLIDWVGMCVDCGKCSATQGRDCLDVIMRLSIMAVHGLRFVG | 51400

Row | Sequence | transcriptional activation domain activity
64 | VIDGSYTTSLKMILFLLAISGQNLLFFFILISLTFLLFLFSTCLCMILLDALI | 22100
65 | INGLFMLLLVYYLTLYHLARCLGYSVLSYLAHFIRFDGFCPLLHTCAGLLFSS | 42300
66 | MFGFIVVLLFSLPFFFTSSTTLSSFYFSFTFLVHFFLSYSLNVFLSFFVWFFF | 58100
67 | LFLFIFLVAESYLGFSCWVLYSNVPLYAHVADLAGTKKPFVLPVPFMNVINGG | 48000
68 | GPASGASKPKRRYVRKRKEPEEGAGVDNAEASSMAPKPKRQRKKKAPMAEARN | 21900
69 | KIHLVNLSQVVVFFIHRILFGIIPLFEIETCAYFPLLISLWHLTYLLFYVVMF | 80700
70 | MILLQCIPPFFLFSFLYSFVFPSPLPTIYDLSFSVSFFLFLFPWLVEIQLCCC | 52800
71 | RRVLVLVMEELGYRTDHAFRIAHRLDRLYQMALTRFLTLTAGVIDLMERIRMS | 58400
72 | AKDEGEEEEDGSTSLNGTGKGTGTGKTHRGARGSKKGKKDGNETTSKAKGDGV | 29500
73 | MDFNQLLAIFYDCIFPFREFYRWLYYGGVVQKNYFLHRELSFTLSNDAYLRFK | 41100
74 | LIVTALVWLFQASTEQFTFVALLMYRLKYPVRRVAWLLKFSAIQNLIPKFGFA | 61200
75 | RDMLIDTYLTPENLYDVHGPGVPVKTLEIATALVDIVGQYDHNMKLEAWNVLH | 50000
76 | MADACGSNPGGKSVKDVRAEQESKRARGALSCAECRRLKLRCDKRVPCSSCQR | 25400
77 | MSQSFLFCPFQCLSLYLFPFCLCFCFPTLAFLSRFSYFILVLFSFLPLLAFVA | 18500
78 | INSTVHNLCELVLLPELFGFCCFSMRFFVFIDLVGTLILPATVVYLFYLIIVV | 39400
79 | YVVQYKNSLIGKHFKMLQQLGVFHLHDLCTPLLFDLWKATGELGALLWYPEIK | 33300
80 | FFGVCLGFYGFSFRSNFEPGAIIHDYILFMTPSFASLCARFHIQWLLFILFIH | 46800
81 | KRHAKRRRDKRKQKEKKNSKRDESSSASDSDRRSQSSSRRSRSSSAGSKRSTR | 17400
82 | ESEGDPEPQPAKSQSRRRQSRGRGRRGAESDSESVARSDVSATGGRRNRQRQK | 43500
83 | MMHSLHPLSISILSLDFNLSYLLFVLPCHRIICSFFRLLAVLFHFFLFIGFYL | 60300
